# Source: patent publication US20110104248A1, “LIPOSOMES AND IMMUNOPOTENTIATING COMPOSITIONS CONTAINING THE SAME” (FOODCHEMIFA CO., LTD., priority 2007, published 2011)
# B1: OVA: ovalbumin (OVA) (SIGMA), antigen (protein, UniProt P01012 2-386, looked up)
# Ovalbumin: GSIGAASMEFCFDVFKELKVHHANENIFYCPIAIMSALAMVYLGAKDSTRTQINKVVRFDKLPGFGDSIEAQCGTSVNVHSSLRDILNQITKPNDVYSFSLASRLYAEERYPILPEYLQCVKELYRGGLEPINFQTAADQARELINSWVESQTNGIIRNVLQPSSVDSQTAMVLVNAIVFKGLWEKAFKDEDTQAMPFRVTEQESKPVQMMYQIGLFRVASMASEKMKILELPFASGTMSMLVLLPDEVSGLEQLESIINFEKLTEWTSSNVMEERKIKVYLPRMKMEEKYNLTSVLMAMGITDVFSSSANLSGISSAESLKISQAVHAAHAEINEAGREVVGSAEAGVDAASVSEEFRADHPFLFCIKHIATNAVLFFGRCVSP
# Experiments:
# [1] = tested on: splenocytes stimulated with OVA; assay: Antigen-specific IFN-γ production from splenocytes of treated mice; type: in vivo, mouse; details: 25 μg GSL-7 i.v.; spleen after 1 week; splenocytes stimulated with OVA 1 mg/ml, 96 hours
# Description: Liposome F (prepared in an amount so that 25 μg of GSL-7 was contained) prepared as in Example 14 was administered to C57BL/6 mice (8- to 10-week-old males) through the caudal vein. After 1 week, the spleen was excised. Splenocytes (5×10^5) were stimulated with OVA (1 mg/ml). After 96 hours, IFN-γ levels in the culture supernatants were measured. IFN-γ levels were measured by sandwich ELISA using purified anti-IFN-γ antibodies (R4-6A2) as capture antibodies and biotin-labeled anti-IFN-γ antibodies (AN-18) as detection antibodies. In the subsequent reaction, alkaline phosphatase-labeled streptavidin was caused to bind to biotin-labeled antibodies. The color was developed using p-nitrophenyl phosphate as a substrate. The absorbance at a wavelength of 405 nm was measured using a microplate reader (MICROPLATE READER Model 550). IFN-γ concentrations in test samples were calculated based on the standard curve of IFN-γ in the recombinant mice.
# C57BL/6 mice = assay: Enhancing antibody production: serum anti-OVA IgG2a by ELISA; type: in vivo, mouse; details: 25 μg GSL-7 and 25 μg OVA through the caudal vein, serum after 14 days, ELISA absorbance at 405 nm
# Description: Liposome F (in an amount so that 25 μg of GSL-7 and 25 μg of OVA were contained) was administered to C57BL/6 mice (8- to 10-week-old females) through the caudal vein. After 14 days, blood was collected and then serum anti-OVA antibody levels were measured by ELISA. An anti-OVA antibody titer (IgG2a) was assayed by adding the gradually diluted serum to a 96-well plate coated with OVA. Alkaline phosphatase (AP)-labeled anti-mouse IgG2a antibodies were used as detection antibodies. The color was developed using paranitrophenylphosphate (p-nitrophenyl phosphate) as a substrate. The reaction was terminated with 3N NaOH, the absorbance at 405 nm was measured using a microplate reader.
molecule,measurement,setting,value
B1,IFN-γ,[1],4.79 ± 0.45 ng/mL
same,Anti-OVA IgG2a,C57BL/6 mice,0.049 ± 0.018
